Measurements: patent US20200132689A1 (ARIZONA BOARD OF REGENTS ON BEHALF OF THE UNIVERSITY OF …, published 2020)
Residue numbers refer to the chain shown, from its start.

B1: murine anti-NAMPT mAb AL303 (antibody, V domains shown)
VH: QVQLQQPGADLVKPGASVKLSCKASGYTFTSYWMQWVKQRPGQGLEWIGEIDPSNSYTNYNQKFRGKATLTVDPSSSTAYMQLSSLTSEDSAVYYCARGGYWGQGTTLTVSS
VL: DIVMTQAAFSNPVTLGTSASISCRSSKSLLHSNGITYLYWYLQKPGQSPQLLIYQMSNLASGVPDRFSSSGSGTDFTLRISRVEAEDVGVYYCVQNLELPYTFGGGTKLEIK
B2: murine anti-NAMPT mAb AL310 (antibody, V domains shown)
VH: QVQLQQSGAESVMPGASVKLSCKASGYTFTSYWMHWVKQRPGQGLEWIGEIDPSDSYTNYNQKFKGKSTLTVDKSSSTAYMQLSSLTSEDSAVYYCAKSNYVVPWYFDVWGTGTTVTVSS
VL: B1 VL with V94A, Y101W

Biological target: T1, nicotinamide phosphoribosyltransferase (NAMPT) (Homo sapiens (Human), UniProt P43490 1-491)
T1 construct: also called PBEF; visfatin
Assay: method not stated

T1 sequence (P43490 whole entry): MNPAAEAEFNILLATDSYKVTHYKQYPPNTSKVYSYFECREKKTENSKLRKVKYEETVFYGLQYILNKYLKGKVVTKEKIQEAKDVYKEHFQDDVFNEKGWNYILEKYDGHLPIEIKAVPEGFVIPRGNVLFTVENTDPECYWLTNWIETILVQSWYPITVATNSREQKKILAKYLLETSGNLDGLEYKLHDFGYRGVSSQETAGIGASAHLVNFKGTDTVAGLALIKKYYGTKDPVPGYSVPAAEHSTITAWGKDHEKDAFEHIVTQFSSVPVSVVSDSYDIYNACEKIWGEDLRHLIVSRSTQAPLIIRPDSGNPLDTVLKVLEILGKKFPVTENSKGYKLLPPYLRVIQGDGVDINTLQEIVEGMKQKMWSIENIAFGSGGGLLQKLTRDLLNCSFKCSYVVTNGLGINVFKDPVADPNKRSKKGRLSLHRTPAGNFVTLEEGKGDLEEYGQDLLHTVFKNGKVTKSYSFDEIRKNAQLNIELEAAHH

Row | Binder | Kd
1 | B1 | 6 nM
2 | B2 | 9 nM
